Laboratory results reported in patent US20150139982A1 (ALETHIA BIOTHERAPEUTICS, published 2015).
Numbering of substitutions follows the chain as printed. Each block holds one binder with its values, some of them ahead of it.

What was measured:
human Siglec-15 [1] = biological target: T1, human Siglec-15 (human, UniProt Q6ZMC9 20-328); assay: flow cytometry on 293-6E cells transfected with human Siglec-15
T1 construct: also called h-Siglec-15; CD33L3
T1 sequence: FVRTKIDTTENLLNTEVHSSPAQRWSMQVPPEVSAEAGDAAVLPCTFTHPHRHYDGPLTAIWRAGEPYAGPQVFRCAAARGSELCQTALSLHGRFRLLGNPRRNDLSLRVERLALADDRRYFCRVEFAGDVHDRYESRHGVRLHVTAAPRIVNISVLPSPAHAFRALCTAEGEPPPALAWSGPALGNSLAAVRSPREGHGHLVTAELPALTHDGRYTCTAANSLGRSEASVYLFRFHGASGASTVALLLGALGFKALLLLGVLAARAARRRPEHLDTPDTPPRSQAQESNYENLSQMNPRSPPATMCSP
Procedure: (§1) We tested the ability of the humanized antibodies to interact with human Siglec-15 expressed on the surface of cultured cells. […] Twenty-four hours later, the cells were harvested, counted and 1×10⁵ cells were incubated with increasing concentrations of the humanized IgG1 variant of 25E9 for 1 hour at 4 C. Following a washing step with cold PBS, bound 25E9 was detected with an anti-human kappa light chain IgG conjugated to FITC. Fluorescently labeled cells were injected into a flow cytometer to measure the fluorescence signal on the surface of intact cells. […] The average KD was in the low nanomolar range. Furthermore, the binding parameters were very similar in the presence of the humanized 25E9 L1H1 IgG1 variant produced in either CHO cells or 293 cells. […] Similar results were obtained with other 25E9 humanized IgG1 antibody variants (the L1H2 IgG1, the L1H3 IgG1, the L1H4 IgG1 and, the L1H1 IgG2) or with the humanized 25D8 IgG2 antibody.

human Siglec-15 [2] = biological target: T1, human Siglec-15; assay: flow cytometry on 293-6E cells transfected with human Siglec-15 cDNA
From the text: The average KD was in the low nanomolar range. Furthermore, the binding parameters were very similar in the presence of the humanized 25E9 L1H1 IgG1 variant produced in either CHO cells or 293 cells. […] Similar results were obtained with other 25E9 humanized IgG1 antibody variants (the L1H2 IgG1, the L1H3 IgG1, the L1H4 IgG1 and, the L1H1 IgG2) or with the humanized 25D8 IgG2 antibody.
Experiments were undertaken to examine the feasibility of targeting Siglec-15-expressing cells with an ADC. The humanized 25E9 L1H1 IgG1 variant was conjugated to a payload that is toxic to proliferating cells as well as non-proliferating or fully differentiated cells, in particular osteoclasts. The humanized 25E9 L1H1 IgG1 conjugated antibody was designated 25E9-ADC. Since the conjugation might affect the ability of 25E9 to interact with native Siglec-15, flow cytometry was conducted to measure the binding of the 25E9-ADC to Siglec-15 expressing cells.

[3] = biological target: T2, Fc-Siglec-15 fusion protein (Homo sapiens (Human), UniProt Q6ZMC9 20-259, limits assumed); assay: SPR, Fc-Siglec-15 immobilized (150 RU), antibody injected at 100, 33.3, 11.1, 3.70 and 1.23 nM, 1:1 fit
T2 construct: also called recombinant Siglec-15; purified Fc-Siglec-15; not shown: Fc region
T2 sequence: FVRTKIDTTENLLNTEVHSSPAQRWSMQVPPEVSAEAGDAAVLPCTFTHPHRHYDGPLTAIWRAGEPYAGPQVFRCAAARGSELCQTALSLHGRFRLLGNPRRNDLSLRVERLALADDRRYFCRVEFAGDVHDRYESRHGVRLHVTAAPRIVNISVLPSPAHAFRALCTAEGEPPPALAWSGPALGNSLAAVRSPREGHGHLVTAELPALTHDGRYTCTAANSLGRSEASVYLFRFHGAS
Procedure: (§2) FIG. 12. SPR chromatograms illustrating the differences in binding parameters between the humanized 25E9 L1H1 IgG1 (left panel) and the humanized 25E9 L1H1 IgG2 (right panel). Purified Fc-Siglec-15 was immobilized (150RU) and humanized 25E9 was injected at the indicated concentrations (100 nM, 33.3 nM, 11.1 nM, 3.70 nM and 1.23 nM). The curves were fit with a 1:1 ratio.
(§3) More particularly, we compared the binding activity of the humanized 25E9 L1H1 IgG1 (the L1H1 IgG1 variant) with the humanized 25E9 L1H1 IgG2 (the L1H1 IgG2 variant) using SPR. The analysis was conducted using methods similar to what was described above (see Example 6). In this instance, Fc-Siglec-15 was immobilized on the chip and decreasing concentrations of the 25E9 antibody variants were injected (100 nM, 33.3 nM, 11.1 nM, 3.70 nM and 1.23 nM). […] The difference in binding was mostly contributed by a slower off-rate (kd) of the IgG1 compared to the IgG2.

[4] = biological target: T2, Fc-Siglec-15 fusion protein; assay: SPR, Fc-Siglec-15 immobilized, antibody injected at 100 to 1.23 nM, 1:1 fit
Procedure: as §2, §3

human Siglec-15 [5] = biological target: T1, human Siglec-15; assay: flow cytometry titration (0 to 4 µg/ml) on 293-6E cells transfected with human Siglec-15, detected with FITC anti-human kappa light chain; antibody made in 293 cells
Procedure: as §1

human Siglec-15 [6] = biological target: T1, human Siglec-15; assay: cell-based or functional assay
[7] = biological target: T2, Fc-Siglec-15 fusion protein; assay: SPR, Fc-Siglec-15 immobilized, antibody injected
Procedure: as §2, §3

human Siglec-15 [8] = biological target: T1, human Siglec-15; assay: flow cytometry titration (0 to 4 µg/ml) on 293-6E cells transfected with human Siglec-15, detected with FITC anti-human kappa light chain; antibody made in CHO cells
Procedure: as §1

binding result (human Siglec-15 [1]): binds
B1: humanized 25E9 L1H2 IgG1 (antibody, V domains shown)
VH: EIQLQQSGAEVKKPGSSVKVSCKASGYTFTDYDMHWVRQAPGQGLEWIGTIDPETGGTAYNQKFKGRATLTADRSTSTAYMELSSLRSEDTAVYYCTSFYYTYSNYDVGFAYWGQGTLVTVSS
VL: DIVMTQSPLSLPVTPGEPASISCRSTKSLLHSNGNTYLYWYLQKPGQSPQLLIYRMSNLASGVPDRFSGSGSGTDFTLKISRVEAEDVGVYYCMQHLEYPFTFGGGTKVEIKR
notes: The residue ranges are those stated in CLM-00047 (item b)

binding result (human Siglec-15 [1]): binds
B2: humanized 25D8 IgG2 antibody (antibody, V domains shown)
VH: QVQLQQSGAEVKKPGSSVKVSCKASGYTFTSYWMHWVRQAPGQGLEWMGLINPSNARTNYNEKFNTRVTITADKSTSTAYMELSSLRSEDTAVYYCARGGDGDYFDYWGQGTTVTVSS
VL: B1 VL with S7T, T26S, N35I, R55Q, M94A, H96N, Y99L, F101Y
notes: Human kappa / human IgG2; also called humanized full-length IgG2 25D8

EC50 (read off the curve) (human Siglec-15 [2]): ~0.2 µg/mL
B3: 25E9-ADC (humanized 25E9 L1H1 IgG1 conjugated antibody) (antibody)
light: DIVMTQSPLSLPVTPGEPASISCRSTKSLLHSNGNTYLYWYLQKPGQSPQLLIYRMSNLASGVPDRFSGSGSGTDFTLKISRVEAEDVGVYYCMQHLEYPFTFGGGTKVEIKRTVAAPSVFIFPPSDEQLKSGTASVVCLLNNFYPREAKVQWKVDNALQSGNSQESVTEQDSKDSTYSLSSTLTLSKADYEKHKVYACEVTHQGLSSPVTKSFNRGEC
heavy: not shown
modifications: conjugated to a toxic payload; payload, linker and attachment residues not stated

koff [3]: 0.000151 s⁻¹
kon [3]: 921000 M⁻¹ s⁻¹
Kd [4]: 0.164 nM
Kd (human Siglec-15 [5]): 1.9 nM
fold difference in potency against the humanized 25E9 L1H1 IgG2 variant (osteoclast differentiation) (human Siglec-15 [6]): ~100 fold
fold higher affinity than the humanized 25E9 L1H1 IgG2 variant [7]: ~10 fold
Kd (human Siglec-15 [8]): 5.7 nM
EC50 (read off the curve) (human Siglec-15 [2]): ~0.1 µg/mL
B4: humanized 25E9 L1H1 IgG1 variant (antibody)
light: B3 light
heavy: not shown
notes: Full-length human kappa / human IgG1; Produced in CHO or 293 cells; also called humanized IgG1 variant of 25E9; unconjugated 25E9

binding result (human Siglec-15 [1]): binds
B5: humanized 25E9 L1H3 IgG1 (antibody, V domains shown)
VH: B1 VH with R38K, R67K
VL: B1 VL
notes: The residue ranges are those stated in CLM-00047 (item c)

binding result (human Siglec-15 [1]): binds
B6: humanized 25E9 L1H4 IgG1 (antibody, V domains shown)
VH: B1 VH with R38K, Q43H, R67K, R87T
VL: B1 VL
notes: The residue ranges are those stated in CLM-00047 (item d)

koff [3]: 0.000655 s⁻¹
kon [3]: 520000 M⁻¹ s⁻¹
Kd [4]: 1.26 nM
B7: humanized 25E9 L1H1 IgG2 variant (antibody)
light: B3 light
heavy: EIQLQQSGAEVKKPGSSVKVSCKASGYTFTDYDMHWVRQAPGQGLEWMGTIDPETGGTAYNQKFKGRVTITADKSTSTAYMELSSLRSEDTAVYYCTSFYYTYSNYDVGFAYWGQGTLVTVSSASTKGPSVFPLAPCSRSTSESTAALGCLVKDYFPEPVTVSWNSGALTSGVHTFPAVLQSSGLYSLSSVVTVPSSNFGTQTYTCNVDHKPSNTKVDKTVERKCCVECPPCPAPPVAGPSVFLFPPKPKDTLMISRTPEVTCVVVDVSHEDPEVQFNWYVDGVEVHNAKTKPREEQFNSTFRVVSVLTVVHQDWLNGKEYKCKVSNKGLPAPIEKTISKTKGQPREPQVYTLPPSREEMTKNQVSLTCLVKGFYPSDIAVEWESNGQPENNYKTTPPMLDSDGSFFLYSKLTVDKSRWQQGNVFSCSVMHEALHNHYTQKSLSLSPGK
notes: Full-length human kappa / human IgG2; also called humanized 25E9 IgG2
